Usually Kd stands for the equilibrium constant for the complex coming apart. Broadly, the IC50 is the concentration that gives 50% inhibition. High values mean weaker potency in that assay, low ones greater potency in that assay.

Where no end group is shown, it is not given here. Side-chain parts run from the residue outwards.

Results on six molecules are retold here after US20110045046A1.

The target in assay [1] is HLA-A*0201 (human). Description: inhibition of binding of a radioiodinated peptide to the MHC molecule (50% inhibition; column headed KD).
Assay [2] deals with HLA-A*0203 (human). Described as above.
A further assay concerns the target HLA-A*0206 (human). Description: MHC binding assay with purified MHC molecules.
The target in the next assay is HLA-A*0202 (human). The experiment in a line: MHC binding assay with purified MHC molecules.
Assay [3] concerns the target HLA-A*0201 (human). Description: MHC binding assay with purified MHC molecules.
Assay [4] concerns the target HLA-A*0203 (human). Description: MHC binding assay with purified MHC molecules.
The target in assay [5] is T1, H-2K^b class I MHC molecule (mouse).
T1 chain 1: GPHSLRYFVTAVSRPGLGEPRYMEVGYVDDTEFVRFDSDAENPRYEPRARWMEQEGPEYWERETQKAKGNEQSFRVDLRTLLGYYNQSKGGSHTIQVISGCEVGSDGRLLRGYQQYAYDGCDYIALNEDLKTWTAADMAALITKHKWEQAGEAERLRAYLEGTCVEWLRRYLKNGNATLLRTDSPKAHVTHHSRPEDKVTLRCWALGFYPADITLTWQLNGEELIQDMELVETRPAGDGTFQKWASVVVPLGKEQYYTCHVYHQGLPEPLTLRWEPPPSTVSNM
T1 chain 2: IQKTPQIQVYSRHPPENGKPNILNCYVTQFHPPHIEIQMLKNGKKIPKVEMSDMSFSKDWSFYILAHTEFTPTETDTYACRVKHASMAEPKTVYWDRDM
Description: K^b binding capacity.

On to LLLLTVLTV (modifications not checked) [LLLL(Tn-T)LTV], for which the Kd in the assay with HLA-A*0201 (human) [1] worked out at 1300 nM; in the assay with HLA-A*0203 (human) [2], 4290 nM.
Molecule ALASAAAAV (modifications not checked) had a concentration for half-maximal inhibition (IC50) in the assay with HLA-A*0206 (human) of 266 nM.
In the case of TLTSCNTSV (modifications not checked), the IC50 amounted to 8.1 nM in the assay with HLA-A*0202 (human), 15 nM with HLA-A*0206 (human), 0.29 nM with HLA-A*0201 (human) [3] and 13 nM in the assay with HLA-A*0203 (human) [4].
For AIIAS([GalNAc-Gal])FAAL [AIIA(β-Gal-[1->3]-α-GalNAc-O-serine)FAAL], the IC50 in assay [5] was 7 nM. This counts as single-digit nanomolar.
The molecule ALASAAAAV (modifications not checked) [ALA(GALNAc-O-S)SAAAAV] returned a 50% inhibitory concentration (IC50) with HLA-A*0206 (human) of 81 nM. That is a double-digit nanomolar value.
Regarding TLTSCNTSV (modifications not checked) [TLT(GalNAc-O-S)CNTSV], the IC50 was 15 nM with HLA-A*0202 (human), 24 nM in the assay with HLA-A*0206 (human), 0.72 nM with HLA-A*0201 (human) [3] and 8.2 nM with HLA-A*0203 (human) [4].
